Data reported in patent publication US20190352359A1 (IMMATICS BIOTECHNOLOGIES, published 2019).
One block for each binder: values may come before it.

How the values were obtained:
HLA-A*24 [1] = molecular target: T1, HLA-A*24; experiment: UV peptide-exchange ELISA (anti-b2m); yield grade +++ = >50
T1 construct: Monomers captured on streptavidin plates; also called peptide-receptive MHC molecules; MHC complexes
From the text: (§1) Candidate peptides for T cell based therapies according to the present invention were further tested for their MHC binding capacity (affinity). The individual peptide-MHC complexes were produced by UV-ligand exchange, where a UV-sensitive peptide is cleaved upon UV-irradiation, and exchanged with the peptide of interest as analyzed. Only peptide candidates that can effectively bind and stabilize the peptide-receptive MHC molecules prevent dissociation of the MHC complexes. To determine the yield of the exchange reaction, an ELISA was performed based on the detection of the light chain (p2m) of stabilized MHC complexes. The assay was performed as generally described in Rodenko et al. (Rodenko et al., 2006)
(§2) 96 well MAXISorp plates (NUNC) were coated over night with 2 ug/ml streptavidin in PBS at room temperature, washed 4× and blocked for 1 h at 37° C. in 2% BSA containing blocking buffer. Refolded HLA-A*02:01/MLA-001 monomers served as standards, covering the range of 15-500 ng/ml. Peptide-MHC monomers of the UV-exchange reaction were diluted 100-fold in blocking buffer. Samples were incubated for 1 h at 37° C., washed four times, incubated with 2 ug/ml HRP conjugated anti-β2m for 1h at 37° C., washed again and detected with TMB solution that is stopped with […]. Absorption was measured at 450 nm. Candidate peptides that show a high exchange yield (preferably higher than 50%, most preferred higher than 75%) are generally preferred for a generation and production of antibodies or fragments thereof, and/or T cell receptors or fragments thereof, as they show sufficient avidity to the MHC molecules and prevent dissociation of the MHC complexes.

HLA-A*24 [2] = molecular target: T1, HLA-A*24; experiment: UV peptide-exchange ELISA (anti-b2m); yield grade + = >10%
From the text: as §1, §2

peptide exchange yield (HLA-A*24 [1]): 50 to 75%
B1: ROS-008 (peptide)
peptide: MDQNQVVWTF
notes: also called MDQNQVVWTF

peptide exchange yield (HLA-A*24 [1]): 50 to 75%
B2: NEFH-003 (peptide)
peptide: SYQEAIQQL
notes: also called SYQEAIQQL

peptide exchange yield (HLA-A*24 [1]): 50 to 75%
B3: CEP250-004 (peptide)
peptide: SLWREVVTF
notes: also called SLWREVVTF

peptide exchange yield (HLA-A*24 [2]): 10 to 20%
B4: OR5H8P-001 (peptide)
peptide: VTPKMLISF
notes: also called VTPKMLISF

peptide exchange yield (HLA-A*24 [1]): 50 to 75%
B5: MMP1-010 (peptide)
peptide: KQMQEFFGL
notes: also called KQMQEFFGL

peptide exchange yield (HLA-A*24 [2]): 10 to 20%
B6: ITIH6-001 (peptide)
peptide: ISFSDTVNVW
notes: also called ISFSDTVNVW

peptide exchange yield (HLA-A*24 [2]): 10 to 20%
B7: F5-004 (peptide)
peptide: IYPHGVTFSP
notes: also called IYPHGVTFSP

peptide exchange yield (HLA-A*24 [1]): 50 to 75%
B8: RNF183-001 (peptide)
peptide: VCWNPFNNTF
notes: also called VCWNPFNNTF

peptide exchange yield (HLA-A*24 [2]): 10 to 20%
B9: ADAM29-001 (peptide)
peptide: IVTFMNKTLGTF
notes: also called IVTFMNKTLGTF

peptide exchange yield (HLA-A*24 [1]): 50 to 75%
B10: HEPHL-006 (peptide)
peptide: YFDENIQKF
notes: also called YFDENIQKF

peptide exchange yield (HLA-A*24 [2]): 10 to 20%
B11: MAGEC1-004 (peptide)
peptide: LQIPVSPSF
notes: also called LQIPVSPSF

peptide exchange yield (HLA-A*24 [2]): 10 to 20%
B12: MMP1-011 (peptide)
peptide: TYFFVANKY
notes: also called TYFFVANKY

peptide exchange yield (HLA-A*24 [1]): 50 to 75%
B13: SUCN-003 (peptide)
peptide: RYLIIKYPF
notes: also called RYLIIKYPF

peptide exchange yield (HLA-A*24 [1]): 50 to 75%
B14: TRIM31-001 (peptide)
peptide: RILTEFELL
notes: also called RILTEFELL

peptide exchange yield (HLA-A*24 [2]): 10 to 20%
B15: ZAC-001 (peptide)
peptide: MMALWSLLHL
notes: also called MMALWSLLHL

peptide exchange yield (HLA-A*24 [1]): 50 to 75%
B16: BRCA2-004 (peptide)
peptide: NAFEAPLTF
notes: also called NAFEAPLTF

peptide exchange yield (HLA-A*24 [1]): 50 to 75%
B17: PTP-041 (peptide)
peptide: SYVLQIVAI
notes: also called SYVLQIVAI

peptide exchange yield (HLA-A*24 [1]): 50 to 75%
B18: PTP-037 (peptide)
peptide: EYSLPVLTF
notes: also called EYSLPVLTF

peptide exchange yield (HLA-A*24 [1]): 50 to 75%
B19: FAM178B-001 (peptide)
peptide: TDWSPPPVEF
notes: also called TDWSPPPVEF

peptide exchange yield (HLA-A*24 [2]): 10 to 20%
B20: SFMBT1-002 (peptide)
peptide: KQVIGIHTF
notes: also called KQVIGIHTF

peptide exchange yield (HLA-A*24 [2]): 10 to 20%
B21: APOB-081 (peptide)
peptide: RVHANPLLI
notes: also called RVHANPLLI

peptide exchange yield (HLA-A*24 [2]): 10 to 20%
B22: PTP-039 (peptide)
peptide: KLRALSILF
notes: also called KLRALSILF

peptide exchange yield (HLA-A*24 [2]): 10 to 20%
B23: BCL11A-002 (peptide)
peptide: FPPTPPLF
notes: also called FPPTPPLF

peptide exchange yield (HLA-A*24 [1]): 50 to 75%
B24: MMP11-023 (peptide)
peptide: KVWSDVTPLTF
notes: also called KVWSDVTPLTF

peptide exchange yield (HLA-A*24 [1]): 50 to 75%
B25: CXCR3-001 (peptide)
peptide: FLPALYSLL
notes: also called FLPALYSLL

peptide exchange yield (HLA-A*24 [1]): 50 to 75%
B26: LOC-019 (peptide)
peptide: IYPDSIQEL
notes: also called IYPDSIQEL

peptide exchange yield (HLA-A*24 [1]): 50 to 75%
B27: NLRP2-009 (peptide)
peptide: QHMLPFWTDL
notes: also called QHMLPFWTDL

peptide exchange yield (HLA-A*24 [1]): 50 to 75%
B28: TGM4-001 (peptide)
peptide: QYPEFSIEL
notes: also called QYPEFSIEL

peptide exchange yield (HLA-A*24 [2]): 10 to 20%
B29: ROS-009 (peptide)
peptide: QFYSTLPNTI
notes: also called QFYSTLPNTI

peptide exchange yield (HLA-A*24 [1]): 50 to 75%
B30: SUCN-002 (peptide)
peptide: FYIVTRPLAF
notes: also called FYIVTRPLAF

peptide exchange yield (HLA-A*24 [1]): 50 to 75%
B31: BTBD16-006 (peptide)
peptide: VYEHNHVSL
notes: also called VYEHNHVSL

peptide exchange yield (HLA-A*24 [2]): 10 to 20%
B32: ITIH6-002 (peptide)
peptide: RRLWAYVTI
notes: also called RRLWAYVTI

peptide exchange yield (HLA-A*24 [2]): 10 to 20%
B33: NAT1-001 (peptide)
peptide: KDQPQVPCVF
notes: also called KDQPQVPCVF

peptide exchange yield (HLA-A*24 [1]): 50 to 75%
B34: HMCN1-010 (peptide)
peptide: LFQRVSSVSF
notes: also called LFQRVSSVSF

peptide exchange yield (HLA-A*24 [1]): 50 to 75%
B35: SFMBT1-001 (peptide)
peptide: IYFNHRCF
notes: also called IYFNHRCF

peptide exchange yield (HLA-A*24 [1]): 50 to 75%
B36: TDRD1-001 (peptide)
peptide: IWAERIMF
notes: also called IWAERIMF

peptide exchange yield (HLA-A*24 [2]): 10 to 20%
B37: GAST-001 (peptide)
peptide: LIFALALAAF
notes: also called LIFALALAAF

peptide exchange yield (HLA-A*24 [2]): 10 to 20%
B38: BTL-003 (peptide)
peptide: GTGKLFWVF
notes: also called GTGKLFWVF

peptide exchange yield (HLA-A*24 [1]): 50 to 75%
B39: AICD-001 (peptide)
peptide: RIFTARLYF
notes: also called RIFTARLYF

peptide exchange yield (HLA-A*24 [2]): 10 to 20%
B40: CCR8-003 (peptide)
peptide: KVVSGFYYI
notes: also called KVVSGFYYI

peptide exchange yield (HLA-A*24 [2]): 10 to 20%
B41: ARSH-001 (peptide)
peptide: SHSDHEFLF
notes: also called SHSDHEFLF

peptide exchange yield (HLA-A*24 [2]): 10 to 20%
B42: TCL1A-003 (peptide)
peptide: KQHAWLPLTI
notes: also called KQHAWLPLTI

peptide exchange yield (HLA-A*24 [2]): 10 to 20%
B43: PCD-007 (peptide)
peptide: ATATLHLIF
notes: also called ATATLHLIF

peptide exchange yield (HLA-A*24 [2]): 10 to 20%
B44: TCL1A-004 (peptide)
peptide: QHAWLPLTI
notes: also called QHAWLPLTI

peptide exchange yield (HLA-A*24 [2]): 10 to 20%
B45: C20-002 (peptide)
peptide: VQADAKLLF
notes: also called VQADAKLLF

peptide exchange yield (HLA-A*24 [1]): 50 to 75%
B46: TXNDC16-006 (peptide)
peptide: KDLMKAYLF
notes: also called KDLMKAYLF

peptide exchange yield (HLA-A*24 [2]): 10 to 20%
B47: TRIML2-001 (peptide)
peptide: MFQEMLQRL
notes: also called MFQEMLQRL

peptide exchange yield (HLA-A*24 [1]): 50 to 75%
B48: CT45-004 (peptide)
peptide: VGGNVTSNF
notes: also called VGGNVTSNF

peptide exchange yield (HLA-A*24 [1]): 50 to 75%
B49: CT45-005 (peptide)
peptide: VGGNVTSSF
notes: also called VGGNVTSSF

peptide exchange yield (HLA-A*24 [2]): 10 to 20%
B50: PSG9-001 (peptide)
peptide: SYIVDGKII
notes: also called SYIVDGKII

peptide exchange yield (HLA-A*24 [2]): 10 to 20%
B51: FLT3-014 (peptide)
peptide: YQVAKGMEF
notes: also called YQVAKGMEF

peptide exchange yield (HLA-A*24 [2]): 10 to 20%
B52: IL22RA2-001 (peptide)
peptide: VYFVQYKIM
notes: also called VYFVQYKIM

peptide exchange yield (HLA-A*24 [1]): 50 to 75%
B53: TGM6-001 (peptide)
peptide: RLGEFVLLF
notes: also called RLGEFVLLF

peptide exchange yield (HLA-A*24 [2]): 10 to 20%
B54: MMP20-001 (peptide)
peptide: KYKNPYGF
notes: also called KYKNPYGF
